T1: GDF11 (Homo sapiens, UniProt O95390)
T1 sequence (O95390 299-407): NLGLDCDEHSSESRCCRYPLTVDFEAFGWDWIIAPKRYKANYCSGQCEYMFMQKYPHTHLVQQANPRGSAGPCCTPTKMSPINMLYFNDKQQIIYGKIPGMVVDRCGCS

T2: activin A (Homo sapiens, UniProt P08476)
T2 sequence (P08476 311-426): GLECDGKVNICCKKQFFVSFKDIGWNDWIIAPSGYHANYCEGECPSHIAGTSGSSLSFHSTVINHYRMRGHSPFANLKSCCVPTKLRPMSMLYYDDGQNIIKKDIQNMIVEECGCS

T3: activin B (Homo sapiens, UniProt P09529)
T3 sequence (P09529 293-407): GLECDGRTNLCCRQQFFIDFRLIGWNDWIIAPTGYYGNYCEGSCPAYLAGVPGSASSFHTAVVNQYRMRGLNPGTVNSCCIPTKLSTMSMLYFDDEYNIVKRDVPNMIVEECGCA

T4: GDF8 (Homo sapiens, UniProt O14793)
T4 sequence (O14793 267-375): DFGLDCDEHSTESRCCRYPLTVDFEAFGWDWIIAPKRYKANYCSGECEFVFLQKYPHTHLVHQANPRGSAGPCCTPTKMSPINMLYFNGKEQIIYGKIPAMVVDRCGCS


What was measured:
[1] = target: T1, GDF11; assay: Biacore ligand affinity of ActRIIB-hFc forms, steady-state affinity fit; assay type: binding; settings: Table 12; Kd by steady-state affinity fit; read-out: GDF11 (Kd e−11)
Description: (§1) Affinities of several ligands for ActRIIB(25-131)-hFc and its full-length counterpart ActRIIB(20-134)-hFc were evaluated in vitro with a Biacore™ instrument, and the results are summarized in Table 8 below. Kd values were obtained by steady-state affinity fit due to very rapid association and dissociation of the complex, which prevented accurate determination of kon and koff. ActRIIB(25-131)-hFc bound, for example, activin A, activin B, and GDF11 with high affinity.
(§2) The affinity of ActRIIB variants and other ActRIIB-hFc proteins for several ligands was evaluated in vitro with a Biacore™ instrument. Kd values were obtained by steady-state affinity fit due to the very rapid association and dissociation of the complex, which prevented accurate determination of kon and koff.

[2] = target: T2, activin A; assay: as above; assay type: binding; settings: Table 12; Kd by steady-state affinity fit; read-out: Activin A (Kd e−11)
Description: as §1, §2

[3] = target: T3, activin B; assay: as above; assay type: binding; settings: Table 12; Kd by steady-state affinity fit; read-out: Activin B (Kd e−11)
Description: as §1, §2

[4] = target: T1, GDF11; assay: A-204 reporter gene assay, pGL3(CAGA)12 luciferase; assay type: cell-based; settings: for inhibition of GDF11 signaling: A-204 reporter gene assay; for GDF11 Inhibition Activity: Table 9, cell-based A-204 assay
Text: (§3) An A-204 reporter gene assay was used to evaluate the effects of ActRIIB-Fc proteins and ActRIIB variant Fc fusion polypeptides on signaling by GDF-11 and activin A. Cell line: human rhabdomyosarcoma (derived from muscle). Reporter vector: pGL3(CAGA)12 (described in Dennler et al, 1998, EMBO 17: 3091-3100). The CAGA12 motif is present in TGF-beta responsive genes (e.g., PAI-1 gene), so this vector is of general use for factors signaling through SMADs.
(§4) Day 1: Split A-204 cells into 48-well plate.
(§5) Day 2: A-204 cells transfected with 10 ug pGL3(CAGA)12 or pGL3(CAGA)12(10 ug)+pRLCMV (1 pg) and Fugene.
(§6) Day 3: Add factors (diluted into medium+0.1% BSA). Inhibitors need to be preincubated with factors for 1 hr before adding to cells. Six hrs later, cells were rinsed with PBS and lysed.
(§7) This is followed by a luciferase assay.
(§8) Activity of ActRIIB-Fc proteins and ActRIIB variant Fc fusion polypeptides was tested in a cell-based assay as described above. Some variants were tested in different C-terminal truncation constructs. As discussed above, truncations of five or fifteen amino acids caused reduction in activity. […]

[5] = target: T2, activin A; assay: A-204 reporter gene assay, pGL3(CAGA)12 luciferase; assay type: cell-based; settings: for inhibition of activin A signaling: A-204 reporter gene assay; for Activin Inhibition Activity: Table 9, cell-based A-204 assay
Text: as §3, §4, §5, §6, §7, §8

[6] = target: T1, GDF11; assay: Biacore assay, ActRIIB-Fc captured with anti-hFc antibody, ligand injected (Example 8); assay type: binding; settings: for Koff: GDF11, Table 10; for GDF11 binding: cell-free Biacore assay, Example 8
Description: (§9) Binding of certain ActRIIB-Fc proteins and ActRIIB variant Fc fusion polypeptides to ligands was tested in a Biacore™ assay.
(§10) The ActRIIB-Fc variants or wild-type protein were captured onto the system using an anti-hFc antibody. Ligands were injected and flowed over the captured receptor proteins.

[7] = target: T4, GDF8; assay: as above; assay type: binding; settings: for Koff: GDF8, Table 10; for myostatin (GDF8) binding: cell-free Biacore assay, Example 8
Description: as §9, §10

[8] = target: T2, activin A; assay: as above; assay type: binding; settings: for KD (M) / Koff: Activin A, Table 10; for activin A binding: cell-free Biacore assay, Example 8
Description: as §9, §10

Row | Molecule | Kd [1] | Kd [2] | Kd [3] | inhibition of GDF11 signaling [4] | GDF11 Inhibition Activity [4] | inhibition of activin A signaling [5] | Activin Inhibition Activity [5] | Koff [6] | GDF11 binding [6] | Koff [7] | myostatin (GDF8) binding [7] | KD (M) [8] | activin A binding [8] | Koff [8]
1 | ActRIIB(L79D 20-134)-hFc: ActRIIB amino acids 20-134 with an L79D substitution fused to a human Fc domain (protein) GRGEAETRECIYYNANWELERTNQSGLERCEGEQDKRLHCYASWRNSSGTIELVKKGCWDDDFNCYDRQECVATEENPQVYFCCCEGNFCNERFTHLPEAGGPEVTYEPPPTAPTGGGTHTCPPCPAPELLGGPSVFLFPPKPKDTLMISRTPEVTCVVVDVSHEDPEVKFNWYVDGVEVHNAKTKPREEQYNSTYRVVSVLTVLHQDWLNGKEYKCKVSNKALPVPIEKTISKAKGQPREPQVYTLPPSREEMTKNQVSLTCLVKGFYPSDIAVEWESNGQPENNYKTTPPVLDSDGSFFLYSKLTVDKSRWQQGNVFSCSVMHEALHNHYTQKSLSLSPGK | 0.123 nM | 13.5 nM | 0.788 nM | almost wild-type inhibition of GDF11 | +++ (Good (wild-type) activity (roughly 1 × 10^−8 KI)) | substantial loss of activin A inhibition | + (Poor activity (roughly 1 × 10^−6 KI)) | 0.000439 s⁻¹ | retains myostatin and GDF11 binding | 0.00083 s⁻¹ | retains myostatin and GDF11 binding | Low binding | markedly decreased (non-quantifiable) binding to activin A | –
2 | ActRIIB(A24N 20-134)-hFc: ActRIIB-Fc variant with A24N substitution, residues 20-134 (protein) GRGENETRECIYYNANWELERTNQSGLERCEGEQDKRLHCYASWRNSSGTIELVKKGCWLDDFNCYDRQECVATEENPQVYFCCCEGNFCNERFTHLPEAGGPEVTYEPPPTAPTGGGTHTCPPCPAPELLGGPSVFLFPPKPKDTLMISRTPEVTCVVVDVSHEDPEVKFNWYVDGVEVHNAKTKPREEQYNSTYRVVSVLTVLHQDWLNGKEYKCKVSNKALPVPIEKTISKAKGQPREPQVYTLPPSREEMTKNQVSLTCLVKGFYPSDIAVEWESNGQPENNYKTTPPVLDSDGSFFLYSKLTVDKSRWQQGNVFSCSVMHEALHNHYTQKSLSLSPGK | – | – | – | equivalent to the wild-type molecule | +++ (Good (wild-type) activity (roughly 1 × 10^−8 KI)) | equivalent to the wild-type molecule | +++ (Good (wild-type) activity (roughly 1 × 10^−8 KI)) | 6.35e-05 s⁻¹ | retains ligand-binding activity that is similar to that of the ActRIIB(20-134)-hFc molecule | – | – | – | retains ligand-binding activity that is similar to that of the ActRIIB(20-134)-hFc molecule | 0.000346 s⁻¹
3 | ActRIIB(L79E 20-134)-hFc: alternative form with a glutamate rather than an aspartate at position 79 (protein) GRGEAETRECIYYNANWELERTNQSGLERCEGEQDKRLHCYASWRNSSGTIELVKKGCWEDDFNCYDRQECVATEENPQVYFCCCEGNFCNERFTHLPEAGGPEVTYEPPPTAPTGGGTHTCPPCPAPELLGGPSVFLFPPKPKDTLMISRTPEVTCVVVDVSHEDPEVKFNWYVDGVEVHNAKTKPREEQYNSTYRVVSVLTVLHQDWLNGKEYKCKVSNKALPVPIEKTISKAKGQPREPQVYTLPPSREEMTKNQVSLTCLVKGFYPSDIAVEWESNGQPENNYKTTPPVLDSDGSFFLYSKLTVDKSRWQQGNVFSCSVMHEALHNHYTQKSLSLSPGK | – | – | – | almost wild-type inhibition of GDF11 | +++ (Good (wild-type) activity (roughly 1 × 10^−8 KI)) | substantial loss of activin A inhibition | + (Poor activity (roughly 1 × 10^−6 KI)) | 0.000274 s⁻¹ | retains myostatin and GDF11 binding | 0.0009 s⁻¹ | retains myostatin and GDF11 binding | Low binding | markedly decreased (non-quantifiable) binding to activin A | –
4 | ActRIIB(R64K 20-134)-hFc: ActRIIB-Fc variant with R64K substitution, residues 20-134 (protein) GRGEAETRECIYYNANWELERTNQSGLERCEGEQDKRLHCYASWKNSSGTIELVKKGCWLDDFNCYDRQECVATEENPQVYFCCCEGNFCNERFTHLPEAGGPEVTYEPPPTAPTGGGTHTCPPCPAPELLGGPSVFLFPPKPKDTLMISRTPEVTCVVVDVSHEDPEVKFNWYVDGVEVHNAKTKPREEQYNSTYRVVSVLTVLHQDWLNGKEYKCKVSNKALPVPIEKTISKAKGQPREPQVYTLPPSREEMTKNQVSLTCLVKGFYPSDIAVEWESNGQPENNYKTTPPVLDSDGSFFLYSKLTVDKSRWQQGNVFSCSVMHEALHNHYTQKSLSLSPGK | – | – | – | – | +++ (Good (wild-type) activity (roughly 1 × 10^−8 KI)) | – | +++ (Good (wild-type) activity (roughly 1 × 10^−8 KI)) | 2.41e-05 s⁻¹ | – | 4.71e-05 s⁻¹ | – | – | – | 0.000325 s⁻¹
5 | ActRIIB(R64K 20-129)-hFc: ActRIIB-Fc variant with R64K substitution, residues 20-129 (protein) GRGEAETRECIYYNANWELERTNQSGLERCEGEQDKRLHCYASWKNSSGTIELVKKGCWLDDFNCYDRQECVATEENPQVYFCCCEGNFCNERFTHLPEAGGPEVTYEPPGGGTHTCPPCPAPELLGGPSVFLFPPKPKDTLMISRTPEVTCVVVDVSHEDPEVKFNWYVDGVEVHNAKTKPREEQYNSTYRVVSVLTVLHQDWLNGKEYKCKVSNKALPVPIEKTISKAKGQPREPQVYTLPPSREEMTKNQVSLTCLVKGFYPSDIAVEWESNGQPENNYKTTPPVLDSDGSFFLYSKLTVDKSRWQQGNVFSCSVMHEALHNHYTQKSLSLSPGK | – | – | – | – | +++ (Good (wild-type) activity (roughly 1 × 10^−8 KI)) | – | +++ (Good (wild-type) activity (roughly 1 × 10^−8 KI)) | – | – | 0.000209 s⁻¹ | – | – | – | 0.000628 s⁻¹

From patent publication US20230129812A1, “COMPOSITIONS AND METHODS FOR TREATING PULMONARY HYPERTENSION” (Acceleron Pharma Inc., priority 2020, published 2023)
